Measured values reported in the DeepSol protein solubility set.

Assay: soluble on expression in E. coli; label from the status in PepcDB or PDB records
For “PSETFYRAKIQEQRERHARYHDTTYNLEPDIKSTPGGLRDIHTLSWVARRHFGATSLLEMSRYGFLTDAEYRELVECQDFLWRVRFALHIELRRYDNRLTFAHQAQVAENLGYVGEGNRGVEMMMKEFYRTLRRVAELNKMLLKLFDQAIINGGATENAEILDADFQRRGSLIEARKPALFQARPETILDMFLHIANDSTIEGVSPPTLRQLRTARRRLN”, the “soluble on expression in E. coli” value was “not soluble”.
With “MEEAKNMALLFFMDHLMQKNGRRTIHDLSCQFGARGFSEEMRNAVGTTQEGLTEFLQGHPSLFTVEGDQVILNGHNDLNAKNNPLLQSGIRSRNYEKEAVDFFVTKLTKFGPELQIKSLLGHRSQAAPEVRLVSGRHLKEFCEFLQSQVDYFVVEGDRVRLKNMPEPDENAIEMDDEGRPLAGVKAKQAAVEYLKSVLEQNEDQPIPLDQFYQNFCQRFSHTIRQDVATNPKELLQFLKLNRGLFFIRSNKVSLVKNRLNEDGSENGSDEGEETNNNGMFPLDQSALTRIHFVKALKPAQDLISRLWQDINNMEKKVVGLDLKTVTVGVDGEIFLSLGVIATTSQIGIFDLASSDVIILESGFKGILESEKVVKVIHDARRVASLLAHKYAVHMRNVFDTQVAHSLLQHEKFNKSLNEMRPISFINLQRVYYPQSIMLSDVTPRKMSMCPNWGVRPITEEFQLTIVEEAHCLLSALYQSLSNLIPVHLRGVFEDKCIEVNHPEVLLASPNRPPPQPFISSPYRASTRRDVRNGGSIMQSFSPAPYAAAPRPQMSDACTQTFSTGDIEVLNVFYE” the “soluble on expression in E. coli” value was “not soluble”.
With “MGHHHHHHSHRNRARFAARKQLVLNLVSSPGSGKTTLLTETLMRLKDSVPCAVIEGDQQTVNDAARIRATGTPAIQVNTGKGCHLDAQMIADAAPRLPLDDNGILFIENVGNLVCPASFDLGEKHKVAVLSVTEGEDK” the “soluble on expression in E. coli” value was “soluble”.
In the case of “MGSDKIHHHHHHMRLDHLRLQNFRCYEDAHFDFQPGFNLVVGVNGSGKTSLLLGVAECLIPYGNAMGQGQEILSKEDVRFVIDRHEGRSRFERKFPVFIRADGDIFDLPNWRAVRLLEPWEGGVDPSSLSHLSAVLARNNAGEQIDFPVLAFYRANRRWSSARISAEFAAQQRTSRFDGYANWFDAVADLRDFESWLIARTLERLQDRLDSTPTVEREDELEWVNRAIRLAIPDAHDLRYDLRLQSLLVDMGEGNAVPFHELSDGQRSLIALIADIARRMCVLNPHIGKDVLANTGGIVIIDELDIHLHPAWQRNIAPTLKKAFPKVQFIATSHSPQVIGSLQPGEVILLKNGDSSHPRATYGLDSSTILEEVMGVPQREPEIEVLLDELFSTLENNELEKARLQLDALKKKAPDLPEFAGAEALLKRKELIGR”, the “soluble on expression in E. coli” value is reported as “not soluble”.
In the case of “MSLNRPEADREALWKIVHDRCEFGYRRTGAYAPCTFVDEQSGTALYKADFDPYQFLLIPLARITGIEDPALRESAGRNYLYDAWAARFLVTARLNNSLPESDVVLTINPKNARTQDQLHIHISCSSPTTSAALRNVDTSEYVGWKQLPIDLGGRRFQGLAVDTKAFESRNLFRDIYLKVTADGKKMENASIAVANVAQDQFLLLLAEGTEDQPVAAETLQDHDCSITKSEGHHHHHH”, the “soluble on expression in E. coli” value is reported as “not soluble”.
For “MKLLEVHILQTVAPSNLNRDDTGSPKDALFGGFRRARISSQAQKRAVRVAFRDWPLLSEEERAVRTKRLVEELLRRLAGVEEELARRAIENALNALGFGVKEGRTEYLLFLGNRELDALAQGIRENLEALSGEVKGKKKAEVPPELKKALERVLDGGKAVDLALFGRMLADRPELGVDAAAQVAHALSTHKVDREFDFYTAVDDLNPKEDTGAGMMGDVEFYSATLYRYAVVDLDKLVENLQGDKELALKGVLAFLEAFALTLPSGKQNSFAAHNPPLFVAFRAGEGMPRNLATAFEAPLRPKEEVPLSRLSAEALLKEWAKFDRVYGPLEPEWKGALDLTGAEGDGVPRLENLKALKEKAAEAVKALLGV”, the “soluble on expression in E. coli” value was “soluble”.
For “KTNTEQFCASCHMQDAYPEYLHSVHYQTRTGVGASCPDCHVPHEFGAKMKRKIIAAKEVYAHYTGKVDTLEKFNAHRLEMAQNEWARMKANDSKECRNCHNVDRMTFNDQRSVAARMHQKMKTEGKTCIDCHKGIAHQLPDMSGVESGFKDEK”, the “soluble on expression in E. coli” value was “not soluble”.
For “MSLLLFEQPVDLEKNNEDDTNIKPFAISRHFLLKLLLCGIILIELLLYSKCPKPIDNGPRTIANRSNTYFNGTHDFKTLTILISIDGFHPRLIDAKYTPFLYNLHNLRSPYDMNITTAPYMIPSFPTQTFPNHWSMVTGKYPIEHGIVSNIFWDNFTSSEFRPNNLDARIWSNTADPIWQLLQTESQGEYKVATHMWPGSEVVYEDHGDVPRERMPFYFGKFNQWEKLQDKLAQIFRYIDMPQLKDRPELVISYIPNVDSYGHSFGYDLRDKRLQKLIGEVDGFFLDLIEGLQKRNLLKISNVMIVSDHGMSNVNANDGEHVVVWERVFPADAMSAFISHLYNEGPMMMVCLKNPRDKQWICDLIEAQLEKAYGDEISRKFHVILKEDFDPSWKYFQYDNRKHRYDDRVGDIWILADEYYAIVKEMGDVPIGIMGTHGYNFNNCSDMASIFIGMGPMFNNEVVPPFENIEVYNMLIKASALLGEEKTKKEKSLLQEGHHHHHH”, the “soluble on expression in E. coli” value was “not soluble”.
In the case of “MELIQDTSRPPLEYVKGVPLIKYFAEALGPLQSFQARPDDLLINTYPKSGTTWVSQILDMIYQGGDLEKCNRAPIYVRVPFLEVNDPGEPSGLETLKDTPPPRLIKSHLPLALLPQTLLDQKVKVVYVARNPKDVAVSYYHFHRMEKAHPEPGTWDSFLEKFMAGEVSYGSWYQHVQEWWELSRTHPVLYLFYEDMKENPKREIQKILEFVGRSLPEETMDFMVQHTSFKEMKKNPMTNYTTVPQELMDHSISPFMRKGMAGDWKTTFTVAQNERFDADYAEKMAGCSLSFRSEL”, the “soluble on expression in E. coli” value is reported as “soluble”.
In the case of “MNTDFQNILKQLGKQAQKEAAEKQAAEKNKQKQEQDFDFSQAVGQLSPLKNRQQYYAPPDKTPIKVRPKDNRADEENYFYIGSTYNDPPASFSKNGQGKNDIQRLKNGYYPVVTDVDLHGYTQEEAQKVLNEFIAFTQKRGVCGEIIHGSGLGSKGYKPVLKNMTRNWLMQHPDVLAYAEPREGNDGCVRILLKRKLRQQD”, the “soluble on expression in E. coli” value is reported as “not soluble”.
For “MGSDKIHHHHHHMDAAKDDLEHAKHDLEHGFYNWACFSSQQAAEKAVKAVFQRMGAQAWGYSVPDFLGELSSRFEIPEELMDHALELDKACIPTRYPDALPSGSPRNRYSRIEAERLVNYAEKIIRFCEDLLSRI”, the “soluble on expression in E. coli” value was “soluble”.
In the case of “MSDEEIDISTALNNKTTPKKKSLKRNSNSQEGYESPEEREIVYPSVFGAIGTPMAKSDNAKEWDEWKEKERKKDKAEWKRYLRSKWDMTQGHLPLVSDSEFLKGRKEHKEYNSKARMDILDGLDEVNEGFFNCGKGAAMNIRYNDKNVSKKGAKKFVATVETAMKKAGNPTMEQMMTDDLDEDEARAEAEWERQREQRKLASRAYDAAMDEREDDAKYVPWDEYCQEMEELGKELKIGEKHYKKWLEKKMDENKVTHKFNAYQLDLKCLDEDAFSNKKSLKSVVRNVQKFYRKMREPKK”, the “soluble on expression in E. coli” value is reported as “not soluble”.
With “MQLKRVAEAKLPTPWGDFLMVGFEEIATGHDHLALVYGDISGSVPVLARVHSECLTGDALFSLRCDCGFQLEAALGHIAEEGRGVLLYHRQEGRNIGLLNKIRAYALQDLGADTVEANHQLGFAADERDFTLCADMFKLLDVDEVRLLTNNPQKVKILNEAGINIVERVPLIVGRNPKNEHYLATKAAKMGHILDMKLEHHHHHH” the “soluble on expression in E. coli” value was “not soluble”.
In the case of “MSKCSADETPVCCCMDVGTIMDNSDCTASYSRVFATRAEAEETLAALTEKARSVESEPCQITPTFTEESEGVRLDIDFVFACEAETLIFQLGLRLEHHHHHH”, the “soluble on expression in E. coli” value is reported as “not soluble”.
In the case of “MGSDKIHHHHHHMQAKLTKKEFIEWLKTSEGKQFNVDLWYGFQCFDYANAGWKVLFGLLLKGLGAKDIPFANNFDGLATVYQNTPDFLAQPGDMVVFGSNYGAGYGHVAWVIEATLDYIIVYEQNWLGGGWTDRIEQPGWGWEKVTRRQHAYDFPMWFIRPNFKSETAPRSIQSPTQASKKETAKPQPKAVELKIIKDVVKGYDLPKRGGNPKGIVIHNDAGSKGATAEAYRNGLVNAPLSRLEAGIAHSYVSGNTVWQALDESQVGWHTANQLGNKYYYGIEVCQSMGADNATFLKNEQATFQECARLLKKWGLPANRNTIRLHNEFTSTSCPHRSSVLHTGFDPVTRGLLPEDKQLQLKDYFIKQIRVYMDGKIPVATVSNESSASSNTVKPVASAWKRNKYGTYYMEESARFTNGNQPITVRKIGPFLSCPVAYQFQPGGYCDYTEVMLQDGHVWVGYTWEGQRYYLPIRTWNGSAPPNQILGDLWGEIS”, the “soluble on expression in E. coli” value is reported as “not soluble”.
In the case of “MSSECDGGSKAVMNGLAPGSNGQDKDMDPTKICTGKGAVTLRASSSYRETPSSSPASPQETRQHESKPGLEPEPSSADEWRLSSSADANGNAQPSSLAAKGYRSVHPNLPSDKSQDSSPLLNEVSSSLIGTDSQAFPSVSKPSSAYPSTTIVNPTIVLLQHNREQQKRLSSLSDPVSERRVGEQDSAPTQEKPTSPGKAIEKRAKDDSRRVVKSTQDLSDVSMDEVGIPLRNTERSKDWYKTMFKQIHKLNRDDDSDLYSPRYSFSEDTKSPLSVPRSKSEMSYIDGEKVVKRSATLPLPARSSSLKSSSERNDWEPPDKKVDTRKYRAEPKSIYEYQPGKSSVLTNEKMSRDISPEEIDLKNEPWYKFFSELEFGKPTNLDKDLSLCQTELEADLEKMETLNKAPSANVPQSSAISPTPEISSETPGYIYSSNFHAVKRESDGAPGDLTSLENERQIYKSVLEGGDIPLQGLSGLKRPSSSASTKVHSRTFNTSNALGPVCKHKKPLSAAKACISEILPSKFKPRLSAPSALLQEQKSILLPSEKAQSCENLCVSGSLNDSKRGLPLQVGGSIENLLMRSRRDYDSKSSSTMSLQEYSTSGRRPCPLSRKAGMQFTMLYRDMHQINRSGLFLGSISSSSSVRDLASHFEKSSLALSRGELGPSQEGSEHIPKHTVSSRITAFEQLIQRSRSMPSLDLSGRLSKSPTPVLSRGSLTSARSAESLLESTKLHPKEMDGMNSSGVYASPTCSNMAHHALSFRGLVPSEPLSTCSDDVDRCSNISTDSREGSGGSVHGDFPKHRLNKCKGTCPASYTRFTTIRKHEQQQTSRQPEWRLDARGDKSTLLRNIYLMSPLPFRLKKPLHHHPRQPSPGDSSGLLVGQKPDLPSQPHQDQPPSGGKPVVPTRLSSRHTMARLSRSSEPSQERPTALEDYPRAINNGNSVPYSDHSLDRNNNPQSELAPSRGDSESPRHFIPADYLESTEEFIRRRHDDKEMRPARAKFDFKAQTLKELPLQKGDIVYIYKQIDQNWYEGEHHGRVGIFPRTYIELLPPAEKAQPKKLTPVQVLEYGEAIAKFNFNGDTQVEMSFRKGERITLLRQVDENWYEGRIPGTSRQGIFPITYVDVIKRPLVKNPVDYMDLPFSSSPSRSATASPQQPQAQQRRVTPDRSQTSQDLFSYQALYSYIPQNDDELELRDGDIVDVMEKCDDGWFVGTSRRTKQFGTFPGNYVKPLYL”, the “soluble on expression in E. coli” value is reported as “soluble”.
With “MAEKKLLLGDEAIALGAIHAGISGVYAYPGTPSTEITEFIQNNRLAKERKLHSTWCTNEKTAMEAALGMSYAGKRALVCMKHVGMNVAADAFVNSAITGVNGGLVVLAADDPSMHSSQNEQDSRFYGKFAMIPMLEPSSQQEAYDMMDYAYTLSEKLKLPVLMRVVTRLAHSRAGVEVADIREENQLNPD” the “soluble on expression in E. coli” value was “soluble”.
With “ARICDVFSRFDETPLASASVAQVHAACLKTGEEVVVKVVRPGLKPIIGQDLAWLFILARMAERVSADARLLHPVQVVMDYEKTIYDELDLLREAANSSQLRRNFEGSDLLYVPQVYWDWCR” the “soluble on expression in E. coli” value was “not soluble”.
In the case of “MRPAGRSNNQVRPVTLTRNYTKHAEGSVLVEFGDTKVLCTASIEEGVPRFLKGQGQGWITAEYGMLPRSTHTRNAREAAKGKQGGRTMEIQRLIARALRAAVDLKALGEFTITLDCDVLQADGGTRTASITGACVALVDALQKLVENGKLKTNPMKGMVAAVSVGIVNGEAVCDLEYVEDSAAETDMNVVMTEDGRIIEVQGTAEGEPFTHEELLILLALARGESNPL”, the “soluble on expression in E. coli” value is reported as “soluble”.
